Measurements: article doi:10.1101/699223 (bioRxiv, 2019)
Each block holds one binder with its values, some of them ahead of it.

B1: human BBS9 (Bardet-Biedl syndrome protein 9), wild type, Flag-tagged (natural protein, UniProt Q3SYG4 1-887, looked up)
chain: MSLFKARDWWSTILGDKEEFDQGCLCLANVDNSGNGQDKIIVGSFMGYLRIFSPHPAKTGDGAQAEDLLLEVDLRDPVLQVEVGKFVSGTEMLHLAVLHSRKLCVYSVSGTLGNVEHGNQCQMKLMYEHNLQRTACNMTYGSFGGVKGRDLICIQSMDGMLMVFEQESYAFGRFLPGFLLPGPLAYSSRTDSFLTVSSCQQVESYKYQVLAFATDADKRQETEQQKLGSGKRLVVDWTLNIGEQALDICIVSFNQSASSVFVLGERNFFCLKDNGQIRFMKKLDWSPSCFLPYCSVSEGTINTLIGNHNNMLHIYQDVTLKWATQLPHIPVAVRVGCLHDLKGVIVTLSDDGHLQCSYLGTDPSLFQAPNVQSRELNYDELDVEMKELQKIIKDVNKSQGVWPMTEREDDLNVSVVVSPNFDSVSQATDVEVGTDLVPSVTVKVTLQNRVILQKAKLSVYVQPPLELTCDQFTFEFMTPDLTRTVSFSVYLKRSYTPSELEGNAVVSYSRPTDRNPDGIPRVIQCKFRLPLKLICLPGQPSKTASHKITIDTNKSPVSLLSLFPGFASQSDDDQVNVMGFHFLGGARITVLASKTSQRYRIQSEQFEDLWLITNELILRLQEYFEKQGVKDFACSFSGSIPLQEYFELIDHHFELRINGEKLEELLSERAVQFRAIQRRLLARFKDKTPAPLQHLDTLLDGTYKQVIALADAVEENQGNLFQSFTRLKSATHLVILLIALWQKLSADQVAILEAAFLPLQEDTQELGWEETVDAAISHLLKTCLSKSSKEQALNLNSQLNIPKDTSQLKKHITLLCDRLSKGGRLCLSTDAAAPQTMVMPGGCTTIPESDLEERSVEQDSTELFTNHRHLTAETPRPEVSPLQGVSE
B3: human BBS2 (Bardet-Biedl syndrome protein 2), wild type, HPC4- and c-Myc-tagged (natural protein, UniProt Q9BXC9 1-721, looked up)
chain: MLLPVFTLKLRHKISPRMVAIGRYDGTHPCLAAATQTGKVFIHNPHTRNQHVSASRVFQSPLESDVSLLSINQAVSCLTAGVLNPELGYDALLVGTQTNLLAYDVYNNSDLFYREVADGANAIVLGTLGDISSPLAIIGGNCALQGFNHEGSDLFWTVTGDNVNSLALCDFDGDGKKELLVGSEDFDIRVFKEDEIVAEMTETEIVTSLCPMYGSRFGYALSNGTVGVYDKTSRYWRIKSKNHAMSIHAFDLNSDGVNELITGWSNGKVDARSDRTGEVIFKDNFSSAIAGVVEGDYRMDGHIQLICCSVDGEIRGYLPGTAEMRGNLMDTSAEQDLIRELSQKKQNLLLELRNYEENAKAELASPLNEADGHRGIIPANTRLHTTLSVSLGNETQTAHTELRISTSNDTIIRAVLIFAEGIFTGESHVVHPSIHNLSSSICIPIVPPKDVPVDLHLKAFVGYRSSTQFHVFESTRQLPRFSMYALTSLDPASEPISYVNFTIAERAQRVVVWLGQNFLLPEDTHIQNAPFQVCFTSLRNGGHLHIKIKLSGEITINTDDIDLAGDIIQSMASFFAIEDLQVEADFPVYFEELRKVLVKVDEYHSVHQKLSADMADHSNLIRSLLVGAEDARLMRDMKTMKSRYMELYDLNRDLLNGYKIRCNNHTELLGNLKAVNQAIQRAGRLRVGKPKNQVITACRDAIRSNNINTLFKIMRVGTASS

Experiments:
[1] = target: T1, human BBS2 R632P, c-Myc-tagged (human, UniProt Q9BXC9 1-721, R632P); assay: co-IP
T1 sequence (looked up): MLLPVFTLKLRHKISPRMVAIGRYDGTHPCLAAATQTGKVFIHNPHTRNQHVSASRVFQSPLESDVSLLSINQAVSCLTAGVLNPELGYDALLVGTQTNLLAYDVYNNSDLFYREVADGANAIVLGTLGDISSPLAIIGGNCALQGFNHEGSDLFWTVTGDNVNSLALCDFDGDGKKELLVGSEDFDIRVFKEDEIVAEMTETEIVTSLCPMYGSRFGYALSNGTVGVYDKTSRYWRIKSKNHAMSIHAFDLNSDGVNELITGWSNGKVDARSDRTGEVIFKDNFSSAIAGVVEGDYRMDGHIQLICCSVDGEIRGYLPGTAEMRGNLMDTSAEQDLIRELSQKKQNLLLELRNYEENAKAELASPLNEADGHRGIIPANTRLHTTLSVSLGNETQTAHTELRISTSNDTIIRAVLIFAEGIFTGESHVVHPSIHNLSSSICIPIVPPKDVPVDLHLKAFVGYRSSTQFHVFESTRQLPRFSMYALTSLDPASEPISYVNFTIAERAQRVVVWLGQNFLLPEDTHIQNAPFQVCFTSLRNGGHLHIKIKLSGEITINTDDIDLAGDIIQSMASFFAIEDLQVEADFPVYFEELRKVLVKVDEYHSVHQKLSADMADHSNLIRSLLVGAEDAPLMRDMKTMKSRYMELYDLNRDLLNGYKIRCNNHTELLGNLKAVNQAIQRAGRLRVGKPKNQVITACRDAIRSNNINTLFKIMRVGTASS

[2] = target: B3; assay: co-IP
[3] = target: B1; assay: negative-stain EM reconstruction + cross-linking

Binder: B1
reduction in binding relative to WT [1]: 70%

reduction in binding relative to WT [2]: 70%
B2: human BBS9 G141R, Flag-tagged (natural protein, UniProt Q3SYG4 1-887, looked up)
chain: MSLFKARDWWSTILGDKEEFDQGCLCLANVDNSGNGQDKIIVGSFMGYLRIFSPHPAKTGDGAQAEDLLLEVDLRDPVLQVEVGKFVSGTEMLHLAVLHSRKLCVYSVSGTLGNVEHGNQCQMKLMYEHNLQRTACNMTYRSFGGVKGRDLICIQSMDGMLMVFEQESYAFGRFLPGFLLPGPLAYSSRTDSFLTVSSCQQVESYKYQVLAFATDADKRQETEQQKLGSGKRLVVDWTLNIGEQALDICIVSFNQSASSVFVLGERNFFCLKDNGQIRFMKKLDWSPSCFLPYCSVSEGTINTLIGNHNNMLHIYQDVTLKWATQLPHIPVAVRVGCLHDLKGVIVTLSDDGHLQCSYLGTDPSLFQAPNVQSRELNYDELDVEMKELQKIIKDVNKSQGVWPMTEREDDLNVSVVVSPNFDSVSQATDVEVGTDLVPSVTVKVTLQNRVILQKAKLSVYVQPPLELTCDQFTFEFMTPDLTRTVSFSVYLKRSYTPSELEGNAVVSYSRPTDRNPDGIPRVIQCKFRLPLKLICLPGQPSKTASHKITIDTNKSPVSLLSLFPGFASQSDDDQVNVMGFHFLGGARITVLASKTSQRYRIQSEQFEDLWLITNELILRLQEYFEKQGVKDFACSFSGSIPLQEYFELIDHHFELRINGEKLEELLSERAVQFRAIQRRLLARFKDKTPAPLQHLDTLLDGTYKQVIALADAVEENQGNLFQSFTRLKSATHLVILLIALWQKLSADQVAILEAAFLPLQEDTQELGWEETVDAAISHLLKTCLSKSSKEQALNLNSQLNIPKDTSQLKKHITLLCDRLSKGGRLCLSTDAAAPQTMVMPGGCTTIPESDLEERSVEQDSTELFTNHRHLTAETPRPEVSPLQGVSE

Binder: B3
binding result [3]: binds
